# In US20060177440A1 (published 2006):
# Positions count from the first letter of the chain named.
# T1: human Rh(D) antigen (human, UniProt Q02161 2-417)
# T1 construct: whole, on cells; also called wt; wild-type Rh(D) on Rh(D)-positive RBCs
# T1 sequence (looked up): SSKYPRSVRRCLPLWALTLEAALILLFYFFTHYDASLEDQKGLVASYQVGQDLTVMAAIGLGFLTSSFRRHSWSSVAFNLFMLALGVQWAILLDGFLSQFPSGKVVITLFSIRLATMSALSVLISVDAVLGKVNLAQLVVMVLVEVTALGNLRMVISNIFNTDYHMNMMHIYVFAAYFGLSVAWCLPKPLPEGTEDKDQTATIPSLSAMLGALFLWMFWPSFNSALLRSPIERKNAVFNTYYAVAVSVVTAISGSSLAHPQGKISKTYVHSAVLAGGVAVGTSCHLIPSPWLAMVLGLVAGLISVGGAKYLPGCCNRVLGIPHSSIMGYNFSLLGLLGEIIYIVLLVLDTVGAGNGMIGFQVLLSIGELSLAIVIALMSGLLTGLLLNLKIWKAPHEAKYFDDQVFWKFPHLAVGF
# B1: SH17 (Fab, V domains shown)
# VH: EVQLLESGGGLVQPGGSLRLSCGASGIPFVSSWMAWVRQAPGKGLEWVANIKQDGSKKNYVDSVEGRFTISRDNAKNSLYLQMDSLRAEDTRIYYCARDSLTCFDYWGQGALVTVSS
# VL: AELQDPVVSVALGQTVRITCQGDGLRSYYASWYQQKPGQAPKLVMYGRNNRPSGIPGRFSGSSSGQTAALTITGTQAEDEADYYCQSRATSGNPVVFGGGTKLTVL
# notes: Fab/phage
# B2: SH13 (Fab, V domains shown)
# VH: EVQLLESGGGVVQPGRSLRLSCAASGFTFSSYGMHWVRQAPGKGLEWVAVVYYDGSNKHYSDSVKGRFTISRDNSKNTLYLQMDSLRAEDTAVYYCARERNFRSGYSRYYYGMDVWGPGTTVTVSS
# VL: not shown
# notes: Fab/phage
# B3: SH56 (Fab, V domains shown)
# VH: B2 VH with S71F
# VL: AELTQSPSSLSASVGDRVTITCRASQSISRYLNWYQQKPGKAPKLLIYAASSLQSGVPSRFSGSGSGTDFALTISSLLPEDFATYYCQQGYSTPPYSFGQGTKLEIKR
# notes: Fab/phage
# Biological target: T1, human Rh(D) antigen
# Test: Fab/phage agglutination (anti-M13)
# Procedure: Following a one-hour incubation at 37° C., the RBCs were washed 3 times with 2 ml of cold PBS to remove unbound antibody. The resulting RBC pellets were resuspended in 100 μl of a 10 μg/ml solution of sheep anti-M13 antibody (5 Prime-3 Prime, Boulder, Colo.) for Fab/phage experiments or goat anti-human κ or λ light chain antibody (Tago, Burlingame, Calif.) for γ₁κ or γ₁λ soluble Fab experiments, respectively. The RBC suspensions were transferred to the round-bottomed wells of a 96-well microplate and left undisturbed for […]. Negative reactions show sharp ˜2 millimeter diameter RBC spots whereas the RBCs in agglutinated wells form a thin carpet coating the entire floor of the well (Siegel et al., 1997, J. Immunol. Meth. 206:73). Agglutination titers for recombinant antibodies were determined by performing serial 2-fold dilutions in 1% BSA/PBS.
# Fifty-six randomly chosen colonies were selected, and monoclonal Fab/phage preparations were separately produced from each of these individual colonies, using the methods described herein in Example 1. Rh(D) specificity was determined by indirect agglutination using anti-M13 antibody, as described herein in Examples 1 and 2.
row,Binder,binding result
1,B1,binds
2,B2,binds
3,B3,binds
